This is an account of results in patent publication US20250102513A1.

Assay [1] deals with PA peptide. Kind of assay: >.
Assay [2] addresses PA peptide. Kind of assay: three sequential binding/encoding cycles with cycle-specific barcodes (BC4, BC5, BC13); NGS of the final product.

The substance anti-PA antibody (Wako Chemicals) displayed a share of extended recording tags with all three cycle barcodes in assay [1] of 78%. In assay [2], this substance returned a share of extended recording tags with one barcode of 1.1% and a share of extended recording tags with two barcodes of 20.7%.
